# Literature values, collected in publication PMC8145179.
# Target: Cys215 (UniProt position 215, PVVVHCSAGIG)
# Settings: apo (ligand-free) enzyme
substance,measurement,value
Protein tyrosine phosphatase 1B (PTP1B) (Homo sapiens (inferred; not stated in the article)),pKa,5.4
